Experimental data: publication PMC2882252 (Journal of the American Chemical Society, 2009)

Tests used:
[1] = molecular target: glutamate racemase (RacE) (Bacillus subtilis, UniProt P94556); assay type: biochemical
N[C@H](CCC(=O)O)C(=O)O = assay: purified protein; assay type: biochemical, Bacillus subtilis; details: active site
purified protein = substrate: N[C@@H](CCC(=O)O)C(=O)O; assay: purified protein; details: active site, between Cys74 and Cys185

Molecule: O=C(O)c1cccc(C(=O)O)n1 [DPA, 2,6-pyridinedicarboxylic acid]
- Ki [1]: 1970 ± 1160 µM

Molecule: glutamate racemase (RacE) T76A (Bacillus subtilis subsp. subtilis str. 168; T76A)
- Km (N[C@H](CCC(=O)O)C(=O)O): 8.6 ± 1.4 mM

B1: glutamate racemase (RacE) (Bacillus subtilis subsp. subtilis str. 168) (protein)
chain: MLEQPIGVIDSGVGGLTVAKEIMRQLPKENIIYVGDTKRCPYGPRPEEEVLQYTWELTNYLLENHHIKMLVIACNTATAIALDDIQRSVGIPVVGVIQPGARAAIKVTDNQHIGVIGTENTIKSNAYEEALLALNPDLKVENLACPLLVPFVESGKFLDKTADEIVKTSLYPLKDTSIDSLILGCTHYPILKEAIQRYMGEHVNIISSGDETAREVSTILSYKGLLNQSPIAPDHQFLTTGARDQFAKIADDWFGHEVGHVECISLQEPIKR
- Km (purified protein): 14 ± 6 mM
